Results as given in patent US20220372138A1 (IOMX THERAPEUTICS, published 2022).
Where a chain is given by its changes, count along the chain named.

B1: A-027 (scFv format) (scFv, V domains shown)
VH: QVQLVQSGAEVKKPGSSVKVSCKASGGTFSSYAISWVRQAPGQGLEWMGGIIPIFGTANYAQKFQGRVTITADKSTSTAYMELSSLRSEDTAVYYCARARGSTWGYFDYWGQGTLVTVSS
VL: EIVLTQSPASLSLSPGERVTLSCRASQSVSNYLAWYQQKPGQAPRLLIYDASNRATGIPARFSGSGSGTDFTLTISSLEPEDFAVYYCQQRDNWPLTFGGGTKVEIK
notes: scFv
B2: C-017 (Fab format) (Fab, V domains shown)
VH: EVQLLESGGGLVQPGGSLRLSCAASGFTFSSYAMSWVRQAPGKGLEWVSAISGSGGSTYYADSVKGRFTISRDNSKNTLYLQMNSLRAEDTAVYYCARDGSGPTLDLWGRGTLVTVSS
VL: DIQMTQSPSSLSASVGDRVTITCRASQSISSYLNWYQQKPGKAPKLLIYAASSLQSGVPSRFSGSGSGTDFTLTISSLQPEDFATYYCQQHRYIPPWTFGQGTKVEIK
notes: Fab from E. coli lysate
B3: A-028 (scFv format) (scFv, V domains shown)
VH: QVQLVQSGAEVKKPGSSVKVSCKASGGTFSSYAISWVRQAPGQGLEWMGGIIPIFGTANYAQKFQGRVTITADESTSTAYMELSSLRSEDTAVYYCARVGVEYQLLWYFDYWGQGTLVTVSS
VL: DIQMTQSPSSLSASVGDRVTLTCRTSQTISNYLNWYQQKPGKAPKLLVYAASNLQSWVPSRFSGSGSGTDFTLTISSLQPEDFATYYCQQSYNASFGGGTKVEFK
notes: scFv
B4: C-016 (Fab format) (Fab, V domains shown)
VH: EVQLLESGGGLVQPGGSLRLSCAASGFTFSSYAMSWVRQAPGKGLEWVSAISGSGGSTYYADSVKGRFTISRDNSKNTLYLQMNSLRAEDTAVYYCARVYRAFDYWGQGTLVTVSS
VL: ASVLTQPPSVSAAPGQKVTISCSGSSSNIGNNYVSWYQQLPGTAPKLLIYDNNKRPSGIPDRFSGSKSGTSATLGITGLQAEDEADYYCHLYTEAESHWVFGGGTKLTVL
notes: Fab from E. coli lysate
B5: C-002 (Fab format) (Fab, V domains shown)
VH: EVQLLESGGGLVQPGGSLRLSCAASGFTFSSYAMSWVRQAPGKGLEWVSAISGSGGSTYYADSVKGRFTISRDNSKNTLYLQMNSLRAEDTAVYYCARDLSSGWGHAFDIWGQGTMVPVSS
VL: B4 VL with H90L, L91S, E94T, A95S, S97H, W99L
notes: Fab from E. coli lysate
B6: A-029 (scFv format) (scFv, V domains shown)
VH: QVQLVQSGAEVKKPGSSVKVSCKASGGTFSSYAISWVRQAPGQGLEWMGGIIPIFGTANYAQKFQGRVTITADESTGTAYMELSSLRSEDTAVYYCARSYYYYYGMDVWGQGTTVTVSS
VL: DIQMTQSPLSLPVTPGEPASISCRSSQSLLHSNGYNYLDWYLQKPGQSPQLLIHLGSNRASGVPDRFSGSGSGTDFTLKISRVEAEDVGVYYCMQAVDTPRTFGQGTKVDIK
notes: scFv
B7: A-003 (scFv format) (scFv, V domains shown)
VH: VQLVQSGAEVKKPGSSVKVSCKASGGTFSSYAISWVRQAPGQGLEWMGGIIPIFGTANYAQKFQGRVTITADESTSTAYMELSSLRSEDTAVYYCASPRIQLWAAGGFDYWGQGTLVTVSS
VL: QSALTQPASVSGSPGQSITISCTGTSSDVGGYNLVSWYQQHPGKAPKLMIYDVSNRPSGVSNRFSGSKSGNTASLTISGLQAEDEADYYCSSFTTSTTLVFGGGTKLTVL
notes: scFv
B8: A-025 (scFv format) (scFv, V domains shown)
VH: QVQLVQSGAEVKKPGSSVKVSCKASGGTFSSYAISWVRQAPGQGLEWMGGIIPIFGTANYAQKFQGRVTITADESTSTAYMELTSLRSEDTAVYYCARGGWLRQNWFDPWGQGTLVTVSS
VL: SSELTQDPAVSVALGQTVRITCQGDSLRSYYASWYQQKPGQAPVLVIYGKNNRPSGIPDRFSGSSSGNTASLTITGAQAEDEADYYCNSRDSSGNHPRVFGGGTKLTVL
notes: scFv
B9: A-033 (scFv format) (scFv, V domains shown)
VH: QVQLVQSGAEVKKPGASVKVSCKASGYTFTSYGISWVRQAPGQGLEWMGWISAYNGNTNYAQKLQGRVTMTTDTSTSTAYMELRSLRSDDTAVYYCARDHSIVGATTFDYWGQGTLVTVSS
VL: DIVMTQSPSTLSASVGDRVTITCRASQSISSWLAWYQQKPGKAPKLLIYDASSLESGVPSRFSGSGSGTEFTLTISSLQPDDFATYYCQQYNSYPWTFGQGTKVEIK
notes: scFv
B10: C-020 (Fab format) (Fab, V domains shown)
VH: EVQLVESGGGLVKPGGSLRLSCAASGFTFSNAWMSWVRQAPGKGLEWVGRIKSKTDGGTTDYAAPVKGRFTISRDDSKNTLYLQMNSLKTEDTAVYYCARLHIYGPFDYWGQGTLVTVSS
VL: SYELTQPPSVSVSPGQTASITCSGDKLGDKYASWYQQKPGQSPVLVIYQDSKRPSGIPERFSGSNSGNTATLTISGTQAEDEADYYCLSYLARSGSVVFGGGTKLTVL
notes: Fab from E. coli lysate
B11: C-015 (Fab format) (Fab, V domains shown)
VH: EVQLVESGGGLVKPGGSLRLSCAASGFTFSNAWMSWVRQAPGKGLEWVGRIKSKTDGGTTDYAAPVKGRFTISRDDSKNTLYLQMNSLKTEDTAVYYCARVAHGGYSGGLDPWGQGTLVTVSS
VL: B10 VL with L88S, Y90T, L91G, A92T, R93A, S94H, G95T, S96L, V97A
notes: Fab from E. coli lysate
B12: C-024 (Fab format) (Fab, V domains shown)
VH: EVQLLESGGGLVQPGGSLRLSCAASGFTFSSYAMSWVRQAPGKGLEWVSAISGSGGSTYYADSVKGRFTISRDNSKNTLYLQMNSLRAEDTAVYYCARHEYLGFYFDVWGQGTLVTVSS
VL: B10 VL with S89A, Y90S, L91H, A92R, R93L, S94T, G95L, S96N, V97Y
notes: Fab from E. coli lysate
B13: C-015 (IgG1 format) (antibody, V domains shown)
VH: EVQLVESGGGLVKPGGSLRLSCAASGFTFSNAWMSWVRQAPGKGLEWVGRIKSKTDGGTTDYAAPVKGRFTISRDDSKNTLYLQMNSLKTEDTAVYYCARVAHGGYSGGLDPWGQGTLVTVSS
VL: B10 VL with L88S, Y90T, L91G, A92T, R93A, S94H, G95T, S96L, V97A
B14: C-018 (IgG1 format) (antibody, V domains shown)
VH: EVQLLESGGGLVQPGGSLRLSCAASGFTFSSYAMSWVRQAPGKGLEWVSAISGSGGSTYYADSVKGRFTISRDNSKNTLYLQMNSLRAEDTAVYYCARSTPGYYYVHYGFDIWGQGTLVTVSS
VL: B10 VL with L88Q, S89A, Y90W, L91S, A92T, R93S, S94T, G95H, V97W
B15: C-023 (Fab format) (Fab, V domains shown)
VH: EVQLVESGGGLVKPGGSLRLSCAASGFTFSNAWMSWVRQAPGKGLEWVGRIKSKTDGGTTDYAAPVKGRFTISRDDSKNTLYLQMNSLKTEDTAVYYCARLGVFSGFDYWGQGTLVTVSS
VL: B10 VL with L88H, S89T, Y90W, L91T, A92H, R93H, G95L, S96A
notes: Fab from E. coli lysate
B16: C-011 (IgG1 format) (antibody, V domains shown)
VH: QVQLVQSGAEVKKPGSSVKVSCKASGGTFSSYAISWVRQAPGQGLEWMGGIIPIFGTANYAQKFQGRVTITADESTSTAYMELSSLRSEDTAVYYCARHSTPSFLQYWGQGTLVTVSS
VL: SYELTQPPSVSVSPGQTASITCSGDKLGDKYASWYQQKPGQSPVLVIYQDSKRPSGIPERFSGSNSGNTATLTISGTQAEDEADYYCAVYPAHASARWVFGGGTKLTVL
B17: A-031 (scFv format) (scFv, V domains shown)
VH: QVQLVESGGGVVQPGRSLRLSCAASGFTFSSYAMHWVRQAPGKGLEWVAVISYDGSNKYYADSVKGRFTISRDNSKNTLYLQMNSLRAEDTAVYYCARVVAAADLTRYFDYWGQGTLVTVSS
VL: EIVLTQSPGTVSLSPGERATLSCRASQSVPKNYLAWFQQKPGQAPRLVIHTASSRAPGIPDRFTGSGSGTDFTLTISRLEPEDFAVYYCQQYGTSPNTFGQGTKLDIK
notes: scFv
B18: C-021 (Fab format) (Fab, V domains shown)
VH: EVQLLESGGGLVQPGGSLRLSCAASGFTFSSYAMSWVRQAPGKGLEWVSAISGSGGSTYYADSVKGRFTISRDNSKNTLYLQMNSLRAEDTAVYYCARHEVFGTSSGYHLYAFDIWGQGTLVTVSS
VL: DIQMTQSPSSLSASVGDRVTITCRASQSISSYLNWYQQKPGKAPKLLIYAASSLQSGVPSRFSGSGSGTDFTLTISSLQPEDFATYYCQQWSGLPLTFGQGTKVEIK
notes: Fab from E. coli lysate
B19: C-022 (IgG1 format) (antibody, V domains shown)
VH: EVQLLESGGGLVQPGGSLRLSCAASGFTFSSYAMSWVRQAPGKGLEWVSAISGSGGSTYYADSVKGRFTISRDNSKNTLYLQMNSLRAEDTAAYYCARMAAGASWGTFDYWSQGTLVTVSS
VL: B18 VL with W91R, L94S
B20: A-032 (scFv format) (scFv, V domains shown)
VH: QVQLVQSGAEVKKPGASVKVSCKASGYTFTGYYMHWVRQAPGQGLEWMGWMNPNSGNTGYAQKFQGRVTMTRNTSISTAYMELSSLRSEDTAVYYCARGGQQQLVLDDYWGQGTLVTVSS
VL: not shown
B21: A-030 (scFv format) (scFv, V domains shown)
VH: B20 VH with M51I
VL: DIQLTQSPSTLSASVGDRVTITCRASQSIGGWLAWYQHKPGKAPKLLIYAASSLQSGVPSRFSGSGSGTDFTLTISSLQPEDFATYYCRQSYSTPPTFGQGTKVEIK
notes: scFv
B22: A-037 (scFv format) (scFv, V domains shown)
VH: B20 VH with M51I
VL: NFMLTQPHSVSESPGKTVTISCTGSSGSIASNYVQWYQQRPGSAPTTVIYEDNQRPSGVPDRFSGSIDSSSNSASLTISGLKTEDEADYYCQSYDSSNQRVFGGGTKLTVL
notes: scFv
B23: A-036 (scFv format) (scFv, V domains shown)
VH: B20 VH with M51I, N57G, G59N
VL: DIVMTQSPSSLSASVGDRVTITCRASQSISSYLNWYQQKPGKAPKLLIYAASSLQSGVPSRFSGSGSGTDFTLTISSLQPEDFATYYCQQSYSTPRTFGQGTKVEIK
notes: scFv

Legend:
[1] = molecular target: T1, extracellular domain (ECD) of human IGSF11 (VSIG3), recombinant (human, UniProt Q5DX21 23-241); assay: ELISA RFU 0.1-0.5
T1 construct: biotinylated where captured on streptavidin; tags of the reagent not always stated; also called IGSF11 (ECD domain); ECD-IGSF11
T1 sequence: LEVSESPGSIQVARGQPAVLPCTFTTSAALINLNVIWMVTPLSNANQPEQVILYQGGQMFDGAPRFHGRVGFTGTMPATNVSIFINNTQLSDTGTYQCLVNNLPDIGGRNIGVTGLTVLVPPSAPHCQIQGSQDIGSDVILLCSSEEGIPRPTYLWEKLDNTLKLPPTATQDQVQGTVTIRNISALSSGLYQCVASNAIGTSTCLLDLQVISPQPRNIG

[2] = molecular target: T2, ECD of murine IGSF11, recombinant biotinylated (mouse, UniProt P0C673 23-240); assay: ELISA RFU 0.1-0.5
T2 construct: whole entry named; also called Mouse IGSF11
T2 sequence: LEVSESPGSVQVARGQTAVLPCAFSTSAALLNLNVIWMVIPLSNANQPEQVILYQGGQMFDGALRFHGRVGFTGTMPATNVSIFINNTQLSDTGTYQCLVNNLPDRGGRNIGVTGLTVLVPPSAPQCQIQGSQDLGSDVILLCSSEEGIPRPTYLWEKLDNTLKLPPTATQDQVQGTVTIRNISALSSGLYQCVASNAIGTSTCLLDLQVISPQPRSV

[3] = molecular target: T2, ECD of murine IGSF11, recombinant …; assay: Fab ELISA
Protocol: (§1) In order to identify IGSF11-specific binding ABPs, monoclonal Fabs expressed from E. coli were generated from the enriched set of anti-IGFS11 antibody-expressing phage. After bacterial lysis, the Fabs were tested for their binding properties and cross-reactivity profile on recombinant ECD-IGSF11 (human, mouse and cynomolgus monkey) by standard ELISA. Briefly, biotinylated recombinant ECD-IGSF11 from human, mouse, or cynomolgus monkey were immobilized at 2 ug/mL on a streptavidin-coated 384-well Maxisorp plate. The surface was blocked with 2% (w/v) skim milk powder in PBST. After three wash cycles with PBST, a bacterial lysate of each of the anti-IGSF11 Fabs in 2% (w/v) skim milk powder was applied to the immobilized IGSF11 and incubated for 1 h. After removing all unbound Fab by 3 wash cycles with PBST, bound Fab antibodies were detected with a goat anti-human Fab antibody conjugated with horseradish peroxidase. After three wash cycles with PBST the ELISA was developed with TMB substrate.

[4] = molecular target: Streptavidin (UniProt P22629 37-163, limits assumed); assay: Fab ELISA
Protocol: as §1

[5] = molecular target: T3, full-length ECD of human IGSF11 fused to murine Fc (human, UniProt Q5DX21 23-241); assay: IgG ELISA;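 note: ELISA binding of IgG antibodies to plate-coated IGSF11 Fc-fusion proteins (full-length ECD, IgV or IgC2 domain), detected via HRP-labelled anti-human IgG with TMB development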
T3 construct: also called Fc-fusion IGSF11 ECD; not shown: murine Fc
T3 sequence: T1 sequence

[6] = molecular target: T4, IgC2 domain of human IGSF11 fused to murine IgG2a Fc (human, UniProt Q5DX21 137-241); assay: IgG ELISA;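 note: ELISA binding of IgG antibodies to plate-coated IGSF11 Fc-fusion proteins (full-length ECD, IgV or IgC2 domain), detected via HRP-labelled anti-human IgG with TMB development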
T4 construct: not shown: murine IgG2a Fc-region
T4 sequence: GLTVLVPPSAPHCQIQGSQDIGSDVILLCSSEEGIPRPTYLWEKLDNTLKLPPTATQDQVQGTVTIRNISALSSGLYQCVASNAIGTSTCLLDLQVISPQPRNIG

Chain of Streptavidin (P22629 37-163 limits assumed): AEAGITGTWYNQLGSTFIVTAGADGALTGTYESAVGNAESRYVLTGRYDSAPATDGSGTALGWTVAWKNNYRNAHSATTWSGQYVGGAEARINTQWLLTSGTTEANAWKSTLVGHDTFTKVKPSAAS

Binder	ELISA binding signal (RFU) [1]	ELISA binding signal (RFU) [2]	A450 [3]	other results
B1	0.1 to 0.5 rfu	0.1 to 0.5 rfu		
B2			< 1	
B3	0.1 to 0.5 rfu	0.1 to 0.5 rfu		
B4			< 1	A450 [4]: < 0.1
B5			< 1	A450 [4]: < 0.1
B6	0.1 to 0.5 rfu	0.1 to 0.5 rfu		
B7	0.1 to 0.5 rfu	0.1 to 0.5 rfu		
B8	0.1 to 0.5 rfu	0.1 to 0.5 rfu		
B9	0.1 to 0.5 rfu	0.1 to 0.5 rfu		
B10			< 1	
B11			< 1	A450 [4]: < 0.1
B12			< 1	
B13				EC50 [5]: 20 to 100 nM; EC50 [6]: 1 to 20 nM
B14				EC50 [5]: 1 to 20 nM; EC50 [6]: < 1 nM
B15			< 1	A450 [4]: < 0.1
B16				EC50 [5]: < 1 nM; EC50 [6]: < 1 nM
B17	0.1 to 0.5 rfu	0.1 to 0.5 rfu		
B18			< 1	A450 [4]: < 0.1
B19				EC50 [5]: 1 to 20 nM; EC50 [6]: 1 to 20 nM
B20	0.1 to 0.5 rfu	0.1 to 0.5 rfu		
B21	0.1 to 0.5 rfu	0.1 to 0.5 rfu		
B22	0.1 to 0.5 rfu	0.1 to 0.5 rfu		
B23	0.1 to 0.5 rfu	0.1 to 0.5 rfu		
